Paper PMC4159696

How the values were obtained:
[1] = target: NapD with an N-terminal hexa His-tag (NapD^NHis) (Escherichia coli) (UniProt P0A9I5); test: SAXS; purified NapD^NHis/NapA complex, P12 BioSAXS beamline (PETRA III), 7 °C
[2] = target: NapD with an N-terminal hexa His-tag (NapD^NHis) (Escherichia coli) (UniProt P0A9I5); test: AUC; sedimentation equilibrium, 4 °C, about 100 kDa complex (fraction 80 of SEC), 0.5 to 1.0 mg/mL, interference and absorbance optics at 260, 280 and 300 nm

Sequence of UniProt P0A9I5 (P0A9I5 whole entry): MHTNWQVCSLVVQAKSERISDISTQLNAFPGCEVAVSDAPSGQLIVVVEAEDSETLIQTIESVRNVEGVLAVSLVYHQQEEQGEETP

“full-length NapA precursor protein (from UniProt P33937 37-828) (natural protein)” was tested, and the stoichiometry N [1] was 1 and the stoichiometry N [2] was 1.
